Test results taken from US20170336407A1.

Key:
Assay in all cases: cell-based or functional assay
[1] = target: T1, Candida albicans fungal pheromone GPCR (Candida albicans)
T1 sequence: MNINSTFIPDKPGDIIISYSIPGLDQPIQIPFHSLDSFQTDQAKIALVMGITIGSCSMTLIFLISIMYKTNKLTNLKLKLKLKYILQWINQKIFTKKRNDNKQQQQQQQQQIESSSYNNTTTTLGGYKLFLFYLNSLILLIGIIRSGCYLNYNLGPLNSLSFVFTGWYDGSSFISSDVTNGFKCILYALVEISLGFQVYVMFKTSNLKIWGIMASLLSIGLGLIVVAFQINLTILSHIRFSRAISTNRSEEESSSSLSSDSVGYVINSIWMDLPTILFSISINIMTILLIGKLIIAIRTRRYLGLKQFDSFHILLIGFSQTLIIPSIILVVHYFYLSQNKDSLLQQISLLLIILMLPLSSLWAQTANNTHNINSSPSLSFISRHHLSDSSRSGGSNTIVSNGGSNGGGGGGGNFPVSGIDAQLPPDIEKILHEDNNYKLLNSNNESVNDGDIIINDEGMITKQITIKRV

[2] = target: Paracoccidioides brasiliensis fungal pheromone GPCR (Paracoccidioides brasiliensis)
[3] = target: T2, Botrytis cinerea fungal pheromone GPCR (Botrytis cinerea)
T2 sequence: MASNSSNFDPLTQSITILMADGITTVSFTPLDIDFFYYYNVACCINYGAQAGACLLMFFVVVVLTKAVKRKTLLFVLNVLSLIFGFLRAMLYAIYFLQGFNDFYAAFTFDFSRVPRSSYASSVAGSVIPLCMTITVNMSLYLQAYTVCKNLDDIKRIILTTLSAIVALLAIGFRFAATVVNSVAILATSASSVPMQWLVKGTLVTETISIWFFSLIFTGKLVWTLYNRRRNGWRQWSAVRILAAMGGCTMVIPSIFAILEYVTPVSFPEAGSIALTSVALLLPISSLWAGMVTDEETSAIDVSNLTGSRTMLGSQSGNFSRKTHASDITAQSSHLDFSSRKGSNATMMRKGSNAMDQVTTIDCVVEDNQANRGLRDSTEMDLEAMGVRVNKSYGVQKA

[4] = target: T3, Candida glabrata fungal pheromone GPCR (Candida glabrata)
T3 sequence: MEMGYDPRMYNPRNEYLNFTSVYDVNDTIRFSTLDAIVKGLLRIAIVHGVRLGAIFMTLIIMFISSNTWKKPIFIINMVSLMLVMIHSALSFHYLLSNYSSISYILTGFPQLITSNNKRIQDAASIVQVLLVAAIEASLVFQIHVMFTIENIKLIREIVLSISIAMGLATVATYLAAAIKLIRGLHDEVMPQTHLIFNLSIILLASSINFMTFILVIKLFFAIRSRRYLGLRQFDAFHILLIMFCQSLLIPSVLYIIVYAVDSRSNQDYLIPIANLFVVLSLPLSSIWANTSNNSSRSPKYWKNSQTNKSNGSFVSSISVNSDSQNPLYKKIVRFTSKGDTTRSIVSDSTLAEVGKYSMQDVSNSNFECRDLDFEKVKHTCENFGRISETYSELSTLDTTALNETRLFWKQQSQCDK

[5] = target: Fusarium graminearum fungal pheromone GPCR (Fusarium graminearum)
[6] = target: T4, Lodderomyces elongisporous fungal pheromone GPCR (Lodderomyces elongisporous)
T4 sequence: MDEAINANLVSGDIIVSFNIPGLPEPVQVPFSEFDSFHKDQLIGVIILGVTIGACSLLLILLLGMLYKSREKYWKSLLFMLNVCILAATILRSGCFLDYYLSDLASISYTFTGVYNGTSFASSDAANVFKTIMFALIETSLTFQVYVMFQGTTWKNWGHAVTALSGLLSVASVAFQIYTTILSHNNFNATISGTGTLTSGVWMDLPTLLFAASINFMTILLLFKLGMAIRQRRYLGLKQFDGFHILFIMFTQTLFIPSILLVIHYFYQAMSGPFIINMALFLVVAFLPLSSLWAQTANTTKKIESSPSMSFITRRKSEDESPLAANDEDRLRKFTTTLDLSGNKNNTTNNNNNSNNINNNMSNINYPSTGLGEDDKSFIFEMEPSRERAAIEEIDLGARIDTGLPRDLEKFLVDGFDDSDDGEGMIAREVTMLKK

[7] = target: Magnaporthe oryzea fungal pheromone GPCR (Magnaporthe oryzea)
[8] = target: T5, Saccharomyces cerevisiae Ste2 pheromone receptor, wild type (Saccharomyces cerevisiae) (UniProt D6VTK4)
T5 sequence: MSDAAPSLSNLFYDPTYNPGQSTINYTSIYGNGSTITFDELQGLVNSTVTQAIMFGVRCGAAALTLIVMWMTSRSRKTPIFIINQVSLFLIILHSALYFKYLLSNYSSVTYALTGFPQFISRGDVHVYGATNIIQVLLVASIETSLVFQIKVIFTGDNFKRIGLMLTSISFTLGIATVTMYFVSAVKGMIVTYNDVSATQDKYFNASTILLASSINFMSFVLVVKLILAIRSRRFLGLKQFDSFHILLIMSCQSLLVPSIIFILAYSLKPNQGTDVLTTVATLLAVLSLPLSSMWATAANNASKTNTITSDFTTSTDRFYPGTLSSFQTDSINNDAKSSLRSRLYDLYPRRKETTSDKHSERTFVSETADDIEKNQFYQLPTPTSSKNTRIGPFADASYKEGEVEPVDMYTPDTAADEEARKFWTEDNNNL

Candida albicans mating peptide pheromone …
EC50 (biosensor strain, fluorescence) [1]: 4 nM | EC50 (fluorescent reporter) [1]: 51 nM

Paracoccidioides brasiliensis mating peptide […]
EC50 (biosensor strain, fluorescence) [2]: 34 nM | EC50 (fluorescent reporter) [2]: 9 nM

Botrytis cinerea mating peptide pheromone …
EC50 (fluorescent reporter) [3]: < 1 nM

Candida glabrata mating peptide pheromone …
EC50 (biosensor strain, fluorescence) [4]: 3600 nM

Fusarium graminearum mating peptide pheromone […]
EC50 (fluorescent reporter) [5]: 230 nM

Lodderomyces elongisporous mating peptide pheromone …
EC50 (biosensor strain, fluorescence) [6]: 51 nM

Magnaporthe oryzea mating peptide pheromone […]
EC50 (fluorescent reporter) [7]: 5000 nM

S. cerevisiae α-Factor, wild type, … (peptide)
EC50 (biosensor strain, fluorescence) [8]: 190 nM
